According to article PMC9163516:

Target: T1, biotinylated avi-tagged TβRI, P36897
T1 chain: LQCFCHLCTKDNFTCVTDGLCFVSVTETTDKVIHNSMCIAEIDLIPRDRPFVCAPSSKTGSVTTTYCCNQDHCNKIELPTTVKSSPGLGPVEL
Experiment: SPR; BIAcore X100; biotinylated avi-tagged TβRI or TβRII captured on neutravidin-coated CM-5 chip (results say streptavidin) at 50-150 RU; TGM constructs injected as 2-fold dilution series in 25 mM Hepes, pH 7.4, 150 mM NaCl, 0.005% P20, 100 μl/min; 1:1 kinetic fit of a single injection series

| Binder | Kd | koff | kon |
| --- | --- | --- | --- |
| TGM-D2 (domain or fragment, modifications not checked) RCSPLPTNDTVSFEYLKATVNPGIIFNITVHPDASGKYPELTYIKRICKNFPTDSNVQGHIIGMCYNAEWQFSSTPTCPAS | 310 nM | 0.091 s⁻¹ | 300000 M⁻¹ s⁻¹ |
| TGM-D12 (domain or fragment, modifications not checked) DDSGCMPFSDEAATYKYVAKGPKNIEIPAQIDNSGMYPDYTHVKRFCKGLHGEDTTGWFVGICLASQWYYYEGVQECDDRRCSPLPTNDTVSFEYLKATVNPGIIFNITVHPDASGKYPELTYIKRICKNFPTDSNVQGHIIGMCYNAEWQFSSTPTCPAS | 24 nM | 0.0016 s⁻¹ | 67000 M⁻¹ s⁻¹ |
